The values below come from the supplement of paper PMC7877785.

± gives the uncertainty stated by the source.

The series is described as follows: self-splicing fitness, log relative to wild type (ln ratio); higher = more splicing; Tetrahymena group I intron in knt gene, E. coli kanamycin selection, DiMSum; sequences stand for … in CUCUCU…GGAGGGAAAAGUUAUCAGGCAUGCACCUGGUAGCUAGUCUUUAAACCAAUAGAUUGCAUCGGUUUAAAAGGCAAGACCGUCAAAUUGCGGGAAAGGGGUCAACAGCCGUUCAGUACCAAGUCUCAGGGGAAACUUUGAGAUGGCCUUGCAAAGGGUAUGGUAAUAAGCUGACGGACAUGGUCCUAACCACGCAGCCAAGUCCUAAGUCAACAGAUCUUCUGUUGAUAUGGAUGCAGUUCACAGACUAAAUGUCGGUCGGGGAAGAUGUAUUCUUCUCAUAAGAUAUAGUCGGACCUCUCCUUAAUGGGAGCUAGCGGAUGAAGUGAUGCAACACUGGAGCCGCUGGGAACUAAUUUGUAUGCGAAAGUAUAUUGAUUAGUUUUGGAGUACUCGUGGUCG
In outline:
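Fitness was computed with DiMSum as the error-weighted combination of replicate fold changes, kanamycin versus none, each normalised to wild type. The library randomised all eight intron nucleotides of the P1ex region, with the intron placed in the knt kanamycin-resistance gene on pET-22b(+) in E. coli BL21(DE3). Six replicate transformations were grown overnight at 37°C or 30°C on LB agar with or without 25 μg/mL kanamycin, plus 100 μg/mL carbenicillin, 50 μM IPTG and 0.2% rhamnose. Pooled colonies were amplicon-sequenced on an Illumina HiSeq 2500.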

On to GCGUAGCAAUAUUACGGGUU, for which the “self-splicing fitness (ln)” value by setting is: (30 °C) -2.12 ± 0.12; (37 °C) -1.32 ± 0.15.

On to GCGUAGCAAUAUUACGUAUG, for which the “self-splicing fitness (ln)” value is -2.96 ± 0.3 (30 °C) and -2 ± 0.24 (37 °C).

Turning to GCGUAGCAAUAUUACGUAUU, the “self-splicing fitness (ln)” value (30 °C) is -2.67 ± 0.12 and the “self-splicing fitness (ln)” value (37 °C) is -2.11 ± 0.19.

Consider GCGUAGCAAUAUUACGUCAC, for which the “self-splicing fitness (ln)” value (37 °C) was -0.245 ± 0.37.

With GCGUAGCAAUAUUACGUCCG, the “self-splicing fitness (ln)” value reads like this: (30 °C) -2.52 ± 0.26; (37 °C) -1.48 ± 0.21.

Take GCGUAGCAAUAUUACGUCUG: the “self-splicing fitness (ln)” value is -3.48 ± 0.23 (30 °C) and -3.38 ± 0.24 (37 °C).

Turning to GCGUAGCAAUAUUACGUGAG, the “self-splicing fitness (ln)” value (30 °C) is -2.75 ± 0.17 and the “self-splicing fitness (ln)” value (37 °C) was -2.67 ± 0.17.

With GCGUAGCAAUAUUACGUGAU, the “self-splicing fitness (ln)” value was -2.79 ± 0.24 (30 °C) and -1.56 ± 0.19 (37 °C).

Turning to GCGUAGCAAUAUUACGUUGU, the “self-splicing fitness (ln)” value (30 °C) is -2.73 ± 0.17 and the “self-splicing fitness (ln)” value (37 °C) was -1.89 ± 0.18.

Take GCUAAGCAAUAUUACGAGAG: the “self-splicing fitness (ln)” value (30 °C) is -2.38 ± 0.12 and the “self-splicing fitness (ln)” value (37 °C) is -1.27 ± 0.14.

Regarding GCUAAGCAAUAUUACGAUAA, the “self-splicing fitness (ln)” value (30 °C) was -1.88 ± 0.17 and the “self-splicing fitness (ln)” value (37 °C) was -1.1 ± 0.17.

Turning to GCUAAGCAAUAUUACGCCCG, the “self-splicing fitness (ln)” value reads like this: (30 °C) -0.889 ± 0.11; (37 °C) -0.34 ± 0.17.

Consider GCUAAGCAAUAUUACGCGCG, for which the “self-splicing fitness (ln)” value (30 °C) is -0.427 ± 0.084 and the “self-splicing fitness (ln)” value (37 °C) is -0.075 ± 0.13.

Regarding GCUAAGCAAUAUUACGCUAA, the “self-splicing fitness (ln)” value is -3.29 ± 0.34 (30 °C) and -2.3 ± 0.21 (37 °C).

Turning to GCUAAGCAAUAUUACGGCAU, the “self-splicing fitness (ln)” value is -2.13 ± 0.1 (30 °C) and -0.863 ± 0.12 (37 °C).

For the sequence GCUAAGCAAUAUUACGGCUG, the “self-splicing fitness (ln)” value is -2.83 ± 0.15 (30 °C) and -2.03 ± 0.18 (37 °C).

Regarding GCUAAGCAAUAUUACGGGAG, the “self-splicing fitness (ln)” value reads like this: (30 °C) -3.12 ± 0.34; (37 °C) -1.28 ± 0.17.

Take GCUAAGCAAUAUUACGGGCC: the “self-splicing fitness (ln)” value (37 °C) is -2.28 ± 0.39.

Turning to GCUAAGCAAUAUUACGGGGC, the “self-splicing fitness (ln)” value (30 °C) is -4.76 ± 0.38 and the “self-splicing fitness (ln)” value (37 °C) is -2.87 ± 0.28.

For the sequence GCUAAGCAAUAUUACGGGGG, the “self-splicing fitness (ln)” value reads like this: (30 °C) -3.45 ± 0.28; (37 °C) -1.89 ± 0.22.

As to GCUAAGCAAUAUUACGGGUG, the “self-splicing fitness (ln)” value (30 °C) was -1.24 ± 0.069 and the “self-splicing fitness (ln)” value (37 °C) is 0.116 ± 0.079.

GCUAAGCAAUAUUACGGUCC: the “self-splicing fitness (ln)” value is, setting by setting: (30 °C) -1.4 ± 0.22; (37 °C) -0.541 ± 0.3.

Consider GCUAAGCAAUAUUACGGUUA, for which the “self-splicing fitness (ln)” value by setting is: (30 °C) -1.33 ± 0.1; (37 °C) -1.49 ± 0.094.

With GCUAAGCAAUAUUACGGUUU, the “self-splicing fitness (ln)” value by setting is: (30 °C) -0.872 ± 0.069; (37 °C) -0.522 ± 0.095.

In the case of GCUAAGCAAUAUUACGUCAG, the “self-splicing fitness (ln)” value was -3.84 ± 0.28 (30 °C) and -2.21 ± 0.22 (37 °C).

As for GCUAAGCAAUAUUACGUCGU, the “self-splicing fitness (ln)” value runs as follows: (30 °C) -1.39 ± 0.072; (37 °C) -1.3 ± 0.095.

Turning to GCUAAGCAAUAUUACGUCUC, the “self-splicing fitness (ln)” value runs as follows: (30 °C) -0.757 ± 0.066; (37 °C) -0.164 ± 0.072.

Consider GCUAAGCAAUAUUACGUCUU, for which the “self-splicing fitness (ln)” value was -1.18 ± 0.13 (30 °C) and 0.136 ± 0.13 (37 °C).

Regarding GCUAAGCAAUAUUACGUGCA, the “self-splicing fitness (ln)” value runs as follows: (30 °C) -0.433 ± 0.094; (37 °C) -0.212 ± 0.1.

On to GCUAAGCAAUAUUACGUGUA, for which the “self-splicing fitness (ln)” value by setting is: (30 °C) -1.29 ± 0.087; (37 °C) -0.0918 ± 0.088.
